Test results as given in paper PMC9864249.
Each block holds one molecule with its values, some of them ahead of it.

Experiments:
[1] = target: GST-ZZUD (ZU5-ZU5-UPA-DD spectrin-binding domain of erythrocyte ankyrin, wild type) (human) (UniProt P16157); test: pull-down; sedimentation assay: GST-ZZUD or GST-ZZUDL1340P adsorbed on Glutathione Sepharose 4B; His(6)GFP–AnkBD 0–2 µM; 50 mM Tris–HCl, 150 mM NaCl, 2 mM DTT, pH 7.5; 30 min, room temperature; eluted with 75 mM GSH, bound GFP read by fluorescence; bare resin subtracted; one site-specific binding fit
[2] = target: His(6)GFP–AnkBD (ankyrin-binding domain of erythrocyte β-spectrin, repeats 14–15) (human) (UniProt P11277); test: BLI; Octet K2; His(6)GFP–AnkBD loaded on Ni2+-NTA biosensor tips; GST-ZZUD or GST-ZZUDL1340P 0–2.5 µM in solution; 30 °C; 50 mM Tris–HCl, 150 mM NaCl, 2 mM DTT, pH 7.5; association 300 s, dissociation 300 s; curves compared by amplitude
Chain of UniProt P11277 (P11277 whole entry, the tested form may be a part): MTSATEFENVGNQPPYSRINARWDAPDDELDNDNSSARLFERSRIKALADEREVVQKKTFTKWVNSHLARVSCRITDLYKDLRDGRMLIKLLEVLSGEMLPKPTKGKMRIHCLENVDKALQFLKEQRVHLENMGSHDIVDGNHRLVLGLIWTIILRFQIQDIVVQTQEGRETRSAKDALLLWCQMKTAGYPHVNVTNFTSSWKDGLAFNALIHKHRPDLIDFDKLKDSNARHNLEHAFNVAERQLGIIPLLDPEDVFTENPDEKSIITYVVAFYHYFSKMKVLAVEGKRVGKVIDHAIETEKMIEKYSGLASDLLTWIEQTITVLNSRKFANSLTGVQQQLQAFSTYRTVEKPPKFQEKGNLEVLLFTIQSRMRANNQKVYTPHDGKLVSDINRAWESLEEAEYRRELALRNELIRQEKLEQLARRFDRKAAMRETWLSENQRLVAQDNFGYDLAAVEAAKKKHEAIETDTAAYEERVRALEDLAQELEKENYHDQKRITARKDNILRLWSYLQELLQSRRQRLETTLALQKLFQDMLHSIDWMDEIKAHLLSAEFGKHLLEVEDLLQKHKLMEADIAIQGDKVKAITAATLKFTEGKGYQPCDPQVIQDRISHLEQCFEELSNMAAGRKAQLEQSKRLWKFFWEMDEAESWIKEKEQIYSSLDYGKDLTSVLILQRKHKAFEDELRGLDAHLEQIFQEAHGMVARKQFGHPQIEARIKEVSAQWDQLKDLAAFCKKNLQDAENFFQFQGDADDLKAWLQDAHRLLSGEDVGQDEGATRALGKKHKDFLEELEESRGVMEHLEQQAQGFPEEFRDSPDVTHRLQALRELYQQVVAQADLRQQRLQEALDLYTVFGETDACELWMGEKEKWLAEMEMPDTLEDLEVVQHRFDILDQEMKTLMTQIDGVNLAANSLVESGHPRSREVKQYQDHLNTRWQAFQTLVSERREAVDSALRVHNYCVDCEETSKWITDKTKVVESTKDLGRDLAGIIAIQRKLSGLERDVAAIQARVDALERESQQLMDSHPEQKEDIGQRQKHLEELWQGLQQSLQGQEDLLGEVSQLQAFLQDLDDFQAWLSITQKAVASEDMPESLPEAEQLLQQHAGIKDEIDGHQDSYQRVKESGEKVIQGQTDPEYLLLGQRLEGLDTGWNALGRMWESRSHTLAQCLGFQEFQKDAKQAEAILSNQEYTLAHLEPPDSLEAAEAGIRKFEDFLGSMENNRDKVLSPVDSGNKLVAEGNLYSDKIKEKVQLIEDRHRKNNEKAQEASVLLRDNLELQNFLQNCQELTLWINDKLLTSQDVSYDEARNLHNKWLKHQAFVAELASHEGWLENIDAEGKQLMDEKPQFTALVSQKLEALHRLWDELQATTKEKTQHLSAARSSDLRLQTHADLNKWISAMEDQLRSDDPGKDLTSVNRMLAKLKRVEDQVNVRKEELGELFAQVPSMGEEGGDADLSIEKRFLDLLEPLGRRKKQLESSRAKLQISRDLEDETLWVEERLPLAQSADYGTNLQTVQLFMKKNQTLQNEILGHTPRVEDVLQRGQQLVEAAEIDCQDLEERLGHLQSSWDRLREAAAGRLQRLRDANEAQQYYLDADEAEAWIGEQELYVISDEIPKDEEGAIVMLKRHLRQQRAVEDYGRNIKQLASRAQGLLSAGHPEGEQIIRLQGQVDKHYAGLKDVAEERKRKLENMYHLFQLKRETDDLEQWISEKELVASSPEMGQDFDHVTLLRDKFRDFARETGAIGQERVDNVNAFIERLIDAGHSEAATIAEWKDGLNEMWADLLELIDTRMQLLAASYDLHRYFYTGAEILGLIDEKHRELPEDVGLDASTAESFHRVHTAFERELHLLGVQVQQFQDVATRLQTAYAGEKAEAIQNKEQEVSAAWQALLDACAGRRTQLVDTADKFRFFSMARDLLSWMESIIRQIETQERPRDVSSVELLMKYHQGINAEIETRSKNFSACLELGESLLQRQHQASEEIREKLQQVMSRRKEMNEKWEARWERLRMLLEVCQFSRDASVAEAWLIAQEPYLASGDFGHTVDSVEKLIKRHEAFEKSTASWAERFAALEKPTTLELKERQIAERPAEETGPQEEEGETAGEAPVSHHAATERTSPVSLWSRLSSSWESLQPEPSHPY

Kd [1]: 1.04 µM
Molecule: His(6)GFP–AnkBD (ankyrin-binding domain of erythrocyte β-spectrin, repeats 14–15) (from UniProt P11277 1-2137) (domain or fragment)

fold decrease in the binding response compared to the WT [2]: 3 fold
B1: GST-ZZUDL1340P (ZZUD domain of erythrocyte ankyrin with the spherocytosis-related L1340P substitution) (domain or fragment)
chain: TGFLVSFMVDARGGSMRGSRHNGLRVVIPPRTCAAPTRITCRLVKPQKLSTPPPLAEEEGLASRIIALGPTGAQFLSPVIVEIPHFASHGRGDRELVVLRSENGSVWKEHRSRYGESYLDQILNGMDEELGSLEELEKKRVCRIITTDFPLYFVIMSRLCQDYDTIGPEGGSLKSKLVPLVQATFPENAVTKRVKLALQAQPVPDELVTKLLGNQATFSPIVTVEPRRRKFHRPIGLRIPLPPSWTDNPRDSGEGDTTSLRLLCSVIGGTDQAQWEDITGTTKLVYANECANFTTNVSARFWLSDCPRTAEAVNFATLLYKELTAVPYMAKFVIFAKMNDPREGRLRCYCMTDDKVDKTLEQHENFVEVARSRDIEVLEGMSLFAELSGNLVPVKKAAQQRSFHFQSFRENRLAMPVKVRDSSREPGGSPSFLRKAMKYEDTQHILCHLNITMPPCAKGSGAEDRRRTPTPLALRYSILSESTPGSLSGTEQAEMKMAVISEHLGLSWAELARELQFSVEDINRIRVENPNSLLEQSVALLNLWVIREGQNANMENLYTALQSIDRGEIVNMLEGSGRQSRN
